Assay results from paper doi:10.1101/2020.04.20.049213 (bioRxiv, 2020).

Biological target: T1, JARID2 (aa 1-450) (human, UniProt Q92833 1-450, K116me3 (trimethyl-lysine at 116))
T1 sequence: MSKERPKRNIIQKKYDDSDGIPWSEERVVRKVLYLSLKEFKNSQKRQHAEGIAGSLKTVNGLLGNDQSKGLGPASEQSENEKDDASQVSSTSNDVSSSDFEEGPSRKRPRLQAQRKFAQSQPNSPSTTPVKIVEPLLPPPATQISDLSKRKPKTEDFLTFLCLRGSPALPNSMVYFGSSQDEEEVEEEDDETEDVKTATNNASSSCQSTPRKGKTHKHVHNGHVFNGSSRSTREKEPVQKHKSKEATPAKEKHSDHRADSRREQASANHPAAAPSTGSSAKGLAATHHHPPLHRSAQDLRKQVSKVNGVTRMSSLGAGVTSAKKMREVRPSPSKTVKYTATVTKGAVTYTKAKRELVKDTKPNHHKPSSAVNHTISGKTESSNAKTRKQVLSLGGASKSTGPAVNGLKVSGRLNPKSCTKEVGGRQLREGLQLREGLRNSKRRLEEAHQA
Assay: cryo-EM structure

B1: EED (aa 80-441) (domain or fragment)
chain: not shown
binding result: binds
